Data set [1] relates to T1, PEDF AAA variant (S24,114, 227A).
T1 sequence: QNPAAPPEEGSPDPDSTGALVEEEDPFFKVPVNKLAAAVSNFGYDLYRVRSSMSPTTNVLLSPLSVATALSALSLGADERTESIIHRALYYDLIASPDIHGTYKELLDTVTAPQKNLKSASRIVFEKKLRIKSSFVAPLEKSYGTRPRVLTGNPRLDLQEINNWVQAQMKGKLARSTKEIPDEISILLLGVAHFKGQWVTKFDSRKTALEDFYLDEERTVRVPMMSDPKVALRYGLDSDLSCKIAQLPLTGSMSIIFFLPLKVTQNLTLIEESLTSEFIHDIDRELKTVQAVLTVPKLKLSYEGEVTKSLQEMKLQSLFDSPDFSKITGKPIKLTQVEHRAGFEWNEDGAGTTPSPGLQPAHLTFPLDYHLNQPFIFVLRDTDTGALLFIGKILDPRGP

Data set [2] deals with T2, PEDF AAE variant (S24,114A, 227E).
T2 sequence: T1 sequence with A208E

Data set [3] relates to T3, PEDF EEA variant (S24,114E, 227A).
T3 sequence: T1 sequence with A5E, A95E

The test system of data set [4] is T4, PEDF EEE variant (S24,114, 227E).
T4 sequence: T1 sequence with A5E, A95E, A208E

In the next data set the test system is T5, PEDF S24,114E variant.
T5 sequence: T1 sequence with A5E, A95E, A208S

Data set [5] relates to T6, Recombinant human pigment epithelium derived factor (rPEDF).
T6 sequence: T1 sequence with A5S, A95S, A208S

Residue numbers refer to the chain shown, from its start.

For “Catalytic subunit of protein kinase A (PKA)”, the “in vitro phosphorylation by PKA” value in data set [1], in data set [2], in data set [3] and in data set [4] was “none of the triple mutants was phosphorylated by PKA” in each case. The “in vitro phosphorylation by PKA after brief heat treatment of the variant” value in the data set with PEDF S24,114E variant was “a brief heat treatment ... restored its phosphorylation by PKA”. Further, in data set [5], the “in vitro phosphorylation by PKA ([γ32P]-ATP, SDS-PAGE, autoradiography)” value is “rPEDF served as a good substrate to PKA”.

These data come from patent US20080274967.
